Measured values taken from doi:10.1101/2020.08.21.260711, “Eukaryotic translation initiation factor 5A and its hypusination play an important role in proliferation and differentiation of the human enteric protozoan parasite Entamoeba histolytica” (bioRxiv, 2020).

Target: T1, Entamoeba histolytica deoxyhypusine synthase 1 (EhDHS1) with the amino-terminal His-tag (E. histolytica, UniProt C4LXB8 1-331)
T1 sequence (looked up): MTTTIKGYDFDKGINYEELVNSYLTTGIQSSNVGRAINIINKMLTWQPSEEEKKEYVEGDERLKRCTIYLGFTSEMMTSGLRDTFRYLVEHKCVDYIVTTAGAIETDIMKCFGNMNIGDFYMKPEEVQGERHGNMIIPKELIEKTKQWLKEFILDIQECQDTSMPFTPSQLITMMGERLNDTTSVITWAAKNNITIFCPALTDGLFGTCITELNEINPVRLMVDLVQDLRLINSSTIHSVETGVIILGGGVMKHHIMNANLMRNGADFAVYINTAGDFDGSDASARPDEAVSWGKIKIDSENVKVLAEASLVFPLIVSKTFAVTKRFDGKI
Test: cell-based or functional assay

B1: Entamoeba histolytica deoxyhypusine synthase 2 (EhDHS2) with the carboxyl-terminal S-tag (enzyme, E. histolytica, UniProt C4M2N7 1-336, looked up)
chain: MSITGEEFAKVTSKVLGESKEYKGEKCIGYDFDNGVDFNKVMEKMKYTGFQALNLGLCIEQVNEMRKNHAKIFLGMSSNIVSSGLREVIHYLVKNKFVDAIVVTAGGIEEDFIKTMHPTLLGDFYFKGKELYPNGYNRIGNLILPNSNYCEFEDWMDPLLLECLKEQNEHGVHWTPSKLVHKMGESINNESSIYYWAAKNNIPVFSPAITDGSIGDMIFFFSYKNEGLVLDLVQDVIKIDEMAFNAEKVGCLLVGAGIAKHHILNAMKRRGGCDYCAMLSTSIECDASDAGSEIAADRTKGFFKPECNPAKVIGDATILLPLIVASTFAQKEEPTK
notes: EhDHS2 gene amplified by PCR, stop codon removed, cloned into AatII-XhoI of pETDuet-EhDHS1; The stop codon was removed to fuse the gene with the C-terminal S-Tag of pETDuet; also called S-tag DHS2; EHI_006030; source: E. coli BL21 (DE3), coexpressed with EhDHS1 from pETDuet-EhDHS1/2, in lysate, then copurified on Ni2+-NTA; not shown: S-tag, C-terminal, kept
DHS enzymatic activity (1,3-diaminopropane production) of coexpressed EhDHS1/EhDHS2 as compared to EhDHS1 alone, with EheIF5A1 or EheIF5A2 as substrates: > 2000 fold
